The target in the test is T1, human Trop-2 (human, UniProt P09758 27-323).
T1 sequence (looked up): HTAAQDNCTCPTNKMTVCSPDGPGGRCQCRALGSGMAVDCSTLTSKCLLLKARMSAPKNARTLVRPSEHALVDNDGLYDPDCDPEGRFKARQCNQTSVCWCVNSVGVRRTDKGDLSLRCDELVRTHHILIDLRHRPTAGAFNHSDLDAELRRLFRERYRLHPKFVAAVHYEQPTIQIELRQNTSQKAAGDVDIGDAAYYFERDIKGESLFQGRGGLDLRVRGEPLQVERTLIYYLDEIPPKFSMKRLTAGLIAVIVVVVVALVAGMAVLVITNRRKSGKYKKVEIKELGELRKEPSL
Briefly: cell-based or functional assay.

B1: A1,2X4-MMAE ADC (antibody, V domains shown)
VH: QVQLQESGPGLVKPSETLSLTCTVSGFSLTSYGVNWIRQPPGKGLEWIGVMWAGGSTNYNSALMSRLTISKDTSKNQFSLKLSSVTAADTAVYYCARDENWDGAWFAYWGQGTLVTVSS
VL: DIVMTQSPDSLAVSLGERATINCKSSQSLLNSGTRKNYLAWYQQKPGQPPKLLISWASSRESGVPDRFSGSGSGTDFTLTISSLQAEDVAVYYCKQSYNLFTFGGGTKVEIK
modifications: MMAE-linker conjugated to the antibody; positions not given
For the molecule B1, the “IC50 (nM), in vitro cytotoxicity assay on MDA-MB-468 cells” value turned out to be 0.389 nM.

(Values after patent US20240101717A1 (BIONECURE THERAPEUTICS, published 2024).)
